Target: 6x(His)-tagged SARS-CoV-1 RBD (SARS-CoV-1, strain , UniProt P59594)
Experiment: BLI
Conditions: both partners purified

B1: D27LE (antibody, V domains shown)
VH: QVQLQQSGAEVKKPGSSVKVSCKASGGTFGNWSISWVRQAPGQGLEWMGGIDPSRGEATYAQKFQGRVTITTDESTSTAYMELSSLRSEDTAVYYCARETWYTSGGMDVWGQGTTVTVSS
VL: SYELTQPPSVSVAPGKTARITCGGNNIGRKSVHWYQQKPGQAPVLVVYDDSDRPSGIPERFSGSNSGNTATLTISRVEAGDEADYYCQVYDLWSSDYVFGTGTKVEIK
- Kd: < 0.01 nM

— PMC9714666 (Frontiers in Immunology, 2022)
